Molecular target: PAK I of frog (Lepidobatrachus laevis) oocytes, zygotes and embryos (frog (Lepidobatrachus laevis))
Experiment: cell-based or functional assay

degree of activation of inactive PAK I in DEAE-cellulose fractions (H4 phosphorylation): 6 to 7 fold
Substance: GST-Cdc42Hs preloaded with GTPγS (from UniProt P60953 1-191)

— patent US20020086390A1
